Test results taken from the supplement of paper PMC10567573.

B1: FAM107A (parent)
chain: LQRVLEHRRRNQLIKKKKEELEAK
B2: SERPINB5 (parent)
chain: FPESETKECPFRVNKVCGAACSSK
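Also: lentivirally expressed fusions sorted by FACS into six bins by GFP to DsRed ratio, PSI derived from sequencing read proportions per bin multiplied by bin number.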

Variants of: B1
Experiment: protein stability index of a GFP-peptide fusion (GPS, HEK-293T) (PSI 1-6); higher = more stable
Settings: c terminus: a fixed tail appended
For E20V, the protein stability index was 3.58. Work on E20W yielded a protein stability index of 2.29. In the case of E20Y, the protein stability index is reported as 2.94. L21A gave a protein stability index of 3.88. L21C gave a protein stability index of 3.3. L21D showed a protein stability index of 4.01. In the case of L21F, the protein stability index is reported as 2.71. L21G showed a protein stability index of 3.63. L21H showed a protein stability index of 3.77. L21I gave a protein stability index of 2.78. L21K gave a protein stability index of 2.99. L21M gave a protein stability index of 3.32. In the case of L21N, the protein stability index is reported as 4.16. For L21P, the protein stability index was 3.46. Work on L21Q yielded a protein stability index of 3.48. L21R gave a protein stability index of 4.14. Work on L21S yielded a protein stability index of 3.92. In the case of L21T, the protein stability index is reported as 3.74. Work on L21V yielded a protein stability index of 3.36. L21W gave a protein stability index of 3.18. With L21Y the protein stability index was 2.46. E22A showed a protein stability index of 3.44. E22C showed a protein stability index of 2.54. Work on E22D yielded a protein stability index of 2.62. Variant E22F has a protein stability index of 2.59. E22G gave a protein stability index of 3.33. E22H showed a protein stability index of 2.33. For E22I, the protein stability index was 2.58. Variant E22K has a protein stability index of 4.21. Variant E22L has a protein stability index of 3.08. E22M showed a protein stability index of 2.83. In the case of E22N, the protein stability index is reported as 2.82. Variant E22P has a protein stability index of 2.77. In the case of E22Q, the protein stability index is reported as 3.59. With E22R the protein stability index was 2.26. E22S gave a protein stability index of 2.96. Variant E22T has a protein stability index of 3.51. In the case of E22V, the protein stability index is reported as 2.88. E22W gave a protein stability index of 2.75. With E22Y the protein stability index was 3.26. For A23C, the protein stability index was 2.98. Work on A23D yielded a protein stability index of 3.75. With A23E the protein stability index was 4.14. A23G gave a protein stability index of 3.7. A23H showed a protein stability index of 2.76. A23I gave a protein stability index of 2.75. In the case of A23K, the protein stability index is reported as 2.86. Variant A23L has a protein stability index of 3.99. With A23M the protein stability index was 3.39. A23N showed a protein stability index of 3.56. With A23Q the protein stability index was 3.87. For A23R, the protein stability index was 3.48. A23S showed a protein stability index of 3.63. With A23T the protein stability index was 3.11. In the case of A23V, the protein stability index is reported as 3.03. Variant A23W has a protein stability index of 4.26. Variant A23Y has a protein stability index of 3.48. Variant K24A has a protein stability index of 3.62. In the case of K24C, the protein stability index is reported as 4.22. In the case of K24D, the protein stability index is reported as 3.89. Variant K24E has a protein stability index of 4.35. With K24F the protein stability index was 3.75. With K24G the protein stability index was 3.63. Variant K24H has a protein stability index of 3.33. Work on K24I yielded a protein stability index of 3.57. Work on K24L yielded a protein stability index of 3.04. K24M showed a protein stability index of 3.3. In the case of K24N, the protein stability index is reported as 3.77. K24P showed a protein stability index of 3.44. Work on K24Q yielded a protein stability index of 3.9. Work on K24R yielded a protein stability index of 2.61. K24S showed a protein stability index of 3.97. Variant K24T has a protein stability index of 3.97. Work on K24V yielded a protein stability index of 3.91. With K24W the protein stability index was 2.88. In the case of K24Y, the protein stability index is reported as 2.62.

Variants of: B2
Experiment: as above
Settings: c terminus: a fixed tail appended
With F1A the protein stability index was 4.46. In the case of F1C, the protein stability index is reported as 4.63. Work on F1D yielded a protein stability index of 5.41. F1E gave a protein stability index of 5.05. F1G showed a protein stability index of 4.7. F1H showed a protein stability index of 4.54. F1I gave a protein stability index of 4.67. Work on F1K yielded a protein stability index of 4.89. Variant F1L has a protein stability index of 4.93. For F1M, the protein stability index was 4.85. F1N gave a protein stability index of 4.61. For F1P, the protein stability index was 4.52. In the case of F1Q, the protein stability index is reported as 4.5. F1R showed a protein stability index of 4.65. Work on F1S yielded a protein stability index of 5.08. In the case of F1T, the protein stability index is reported as 2.73. With F1V the protein stability index was 4.5. F1W showed a protein stability index of 3.85. For F1Y, the protein stability index was 3.41. For P2A, the protein stability index was 2.02. P2C gave a protein stability index of 2.31. For P2D, the protein stability index was 4.73. P2E showed a protein stability index of 4.59. With P2F the protein stability index was 4.09. P2G showed a protein stability index of 3.59. P2H showed a protein stability index of 2.19. In the case of P2I, the protein stability index is reported as 2.07. With P2K the protein stability index was 4.63. P2L showed a protein stability index of 3.57. With P2M the protein stability index was 3.77. For P2N, the protein stability index was 3.63. P2Q showed a protein stability index of 3.73. Variant P2R has a protein stability index of 4.19. Work on P2S yielded a protein stability index of 3.66. For P2T, the protein stability index was 2.26. Work on P2V yielded a protein stability index of 2.13. In the case of P2W, the protein stability index is reported as 3.64. P2Y showed a protein stability index of 3.67. For E3A, the protein stability index was 1.42. Work on E3C yielded a protein stability index of 2.4. Variant E3D has a protein stability index of 2.42. E3F gave a protein stability index of 1.75. Variant E3G has a protein stability index of 1.88. With E3H the protein stability index was 1.55. E3I gave a protein stability index of 1.86. Work on E3K yielded a protein stability index of 2.09. For E3L, the protein stability index was 1.43. For E3M, the protein stability index was 1.45. E3N showed a protein stability index of 2.4. Work on E3P yielded a protein stability index of 2.15. E3Q gave a protein stability index of 1.75. Work on E3R yielded a protein stability index of 1.71. With E3S the protein stability index was 1.47. E3T gave a protein stability index of 1.43. With E3V the protein stability index was 1.99. With E3W the protein stability index was 2.29. In the case of E3Y, the protein stability index is reported as 1.53. S4A showed a protein stability index of 2.46. S4C gave a protein stability index of 3.16. In the case of S4D, the protein stability index is reported as 4.14. S4E showed a protein stability index of 4.53. S4F showed a protein stability index of 2.54. For S4G, the protein stability index was 2.25. In the case of S4H, the protein stability index is reported as 2.62. Variant S4I has a protein stability index of 2.72. Variant S4K has a protein stability index of 3.78. With S4L the protein stability index was 2.35. Work on S4M yielded a protein stability index of 2.48. In the case of S4N, the protein stability index is reported as 3.17. For S4P, the protein stability index was 3.49. For S4Q, the protein stability index was 3.83. S4R showed a protein stability index of 2.76. S4T showed a protein stability index of 3.34. S4V gave a protein stability index of 3.08. For S4W, the protein stability index was 2.03. Variant S4Y has a protein stability index of 2.9. Work on E5A yielded a protein stability index of 1.88. E5C showed a protein stability index of 1.72. E5D gave a protein stability index of 1.92. Work on E5F yielded a protein stability index of 1.6. Work on E5G yielded a protein stability index of 1.68. Work on E5H yielded a protein stability index of 1.4. E5I gave a protein stability index of 1.8. With E5K the protein stability index was 1.67. E5L showed a protein stability index of 1.78. E5M gave a protein stability index of 2.35. For E5N, the protein stability index was 1.89. E5P showed a protein stability index of 3.05. With E5Q the protein stability index was 1.4. E5R showed a protein stability index of 1.9. Work on E5S yielded a protein stability index of 1.97.
